Measured values reported in the supplement of paper PMC9170038.

System: MS2 coat protein
Experiment: apparent KD of MS2 coat protein; designed switch direction (-1 OFF switch, 1 ON switch): -1; higher = weaker reporter binding
Procedure, shortened: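 Designed RNA switches with common flanks were transcribed on Illumina chips by stalled E. coli RNA polymerase and titrated with SNAP-549-labelled MS2 coat protein, from 0.7 or 1.5 nM doubling to 3 µM, in Tris-HCl pH 7.5 buffer with KCl, MgCl2, BSA, DTT, tRNA and Tween-20. Steps lasted 0.8–1.5 h (lowest) to 10–20 min (highest). Titrations ran without input, with 200 uM small-molecule ligand, or with an oligonucleotide input. Normalised cluster fluorescence was curve-fitted, and apparent KD is the per-design median over clusters.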

[1] = input ligand: microRNA oligo, concentration not stated
[2] = Eterna round: R95, input ligand: FMN 200 uM
[3] = Eterna round: R95, input ligand: microRNA oligo, concentration not stated
[4] = Eterna round: R95, input ligand: none

Row | Sequence | apparent KD of MS2 coat protein (input ligand: FMN 200 uM) [nM] | apparent KD of MS2 coat protein (input ligand: none) [nM] | apparent KD of MS2 coat protein [1] [nM] | apparent KD of MS2 coat protein [2] [nM] | apparent KD of MS2 coat protein [3] [nM] | apparent KD of MS2 coat protein [4] [nM]
1 | UGCCUACGUGUGAGGAUAUCAAGGUUUCCACACUAUGAGAAGGUACAUGAGGAUCACCCAUGUUUAGAUGAGCC [Eternabot (L2) Solution 43] (Eterna round: R97, puzzle: Brourd's mod of Exclusion 4) | 74.2 | 74.6 | – | – | – | –
2 | GGAUCAUAUGUCAGGAUAUGCAGGUCCUUGGAUCUGCAGAAGGGACAUGAGGAUCACCCAUGUCAUGUAGAUCC [Mat - Exclusion 4 - Eli Mod - D54] (Eterna round: R97, puzzle: Brourd's mod of Exclusion 4) | 116 | 25.3 | – | – | – | –
3 | GUCAGCUCGUGAGGAUAUAUAUACAUGAGGAUCACCCAUGUAAGAUCAGGCUUCGGCCAAUGUAUAUAGAAGGCACGAGCUGAU [ENG2/11-A2] (Eterna round: R96, puzzle: Exclusion NG 2) | 847 | 1120 | 695 | – | – | –
4 | GUAAUGCUGCGAGGAUAUACAUGAGGAUCACCCAUGUGGAUGUCUGAGGCUUUGCCUCAGACGAUGUAGAAGGCGCAGUAAAAU [Mat - Exclusion NG 2 - Mod of JL - D53] (Eterna round: R96, puzzle: Exclusion NG 2) | 87.5 | 28.3 | 11.5 | – | – | –
5 | ACUUAUAGAGGAUAUACAGAUUAUUACAUGAGGAUCACCCAUGUUCUUCAAUGUAUAUAUGUAGAAGGCUAAGGAA [JL-ex5-4.23 Malcolm mod] (Eterna round: R97, puzzle: Exclusion 5) | 381 | 82.2 | – | – | – | –
6 | AAAUCUGAGAAGGAUAUGGUACAGGAAAUGGUGCCAGAAGGUUUCACAUGAGGAUCACCCAUGUCGAAUAGUGA [EX6 #65] (Eterna round: R97, puzzle: Exclusion 6) | 29.6 | 19.3 | – | – | – | –
7 | GAUCUAGGUGUCAGGAUAUGUAGCUAGGUAAGCAGACAGAAGGGACAUGAGGAUCACCCAUGUCGCAAAUUAAU [Gezadi] (Eterna round: R97, puzzle: Brourd's mod of Exclusion 4) | 86 | 18.5 | – | – | – | –
8 | UCAAUUAUGACAGGAUAUAGUUUUUGUUUUUCUCUAGAAGGGUCUAUGCACAUGAGGAUCACCCAUGUUCUUUUUAUUUGCAUU [JR_ExcNG1_Sub016] (Eterna round: R96, puzzle: Exclusion NG 1) | 47.5 | 70.9 | 46.1 | – | – | –
9 | AGUACUAACACGAAAGUGUUAGUACUAUAAGCUUGUGUAACAUGAGGAUCACCCAUGUCCUCAUAAGCUCGUCUUAU [Mat - Sensor v3 - Turn-off var 2 - D100] (puzzle: Sensor v3, turn-off variant 2) | – | – | – | 58.3 | 131 | 61.2
10 | UGUACGAUGCGUGCUGACAUGCGUCGUGCAGCAGGUGAUACAUGAGGAUCACCCAUGUCCUCAUUUGCUCGUCUUGU [SL-sv3-2.11 JL mod] (puzzle: Sensor v3, turn-off variant 2) | – | – | – | 82.5 | 267 | 85.6
11 | CCUGUGUGAGGAUAUGGUGUUGGCCAAAAGGAAUAGCUCCUCCAGAAGGCACAUGAGGAUCACCCAUGUCGUGG [Jolly's Folly 23 - Jieux - Exclusion 4] (Eterna round: R96, puzzle: Exclusion 4) | 138 | 60.2 | 50.3 | – | – | –
12 | GAAAAGGUAGGAUAUACGAAAAAGAAGGGUAGAAAAAAAACACAUGAGGAUCACCCAUGUAGAAGGACCAAAAG [salish99_ex2_r3_026] (puzzle: Exclusion 2) | – | – | – | 56 | 24.1 | 21
13 | AGUCGGUCAGGAUAUGCAAACGUAGACAUGAGGAUCACCCAUGUAACGUGGGCCUGGUUUGUAGAAGGGACGAGCA [EX5 #85] (Eterna round: R97, puzzle: Exclusion 5) | 38.2 | 28.2 | – | – | – | –
14 | GCACCGCGAGGAUAUACAUGAGGAUCACCCAUGUGUCCGCAGCGAUGUGUGUACAAAUGUAGAAGGCGCGUAAA [EX3 #60] (Eterna round: R97, puzzle: Exclusion 3) | 21.5 | 12.1 | – | – | – | –
15 | UUUAAUUUAAUUAAGAUCACAUGAGGAUCACCCAUGUAAUUAUAGGAUAUCAGCUCGUUUAGAGCUGAGAAGGAUAAUUACAUA [ExNG3/5-A2] (Eterna round: R96, puzzle: Exclusion NG 3) | – | – | 23.8 | – | – | –
